Experiments:
[1] = target: HLA-A2/MART1(26) control peptide on T2 cells (human); test: FACS, T2 + MART1 peptide
[2] = target: T1, HLA-A2/P68 peptide on T2 cells; test: FACS, T2 + P68 peptide
T1 construct: also called p68-DDX5

[3] = target: HLA-A2/MAGE-A4-A4 peptide on T2 cells (human); test: FACS (MFI) vs native peptide, Ala-mutant peptide on T2 cells
[4] = target: HLA-A2/MAGE-A4-A7 peptide on T2 cells (human); test: as above
[5] = target: HLA-A2/MAGE-A4-A2 peptide on T2 cells (human); test: as above
[6] = target: HLA-A2/MAGE-A4-A6 peptide on T2 cells (human); test: as above
[7] = target: HLA-A2/MAGE-A4-A5 peptide on T2 cells (human); test: as above

Binder | binding result [1] | binding result [2] | % decrease in binding [3] [%] | % decrease in binding [4] [%] | % decrease in binding [5] [%] | % decrease in binding [6] [%] | % decrease in binding [7] [%]
906-11-D11 TCR-like antibody (antibody, mouse IgG1, kappa, V domains shown, also called Tyr D11) VH: not shown VL: DIQMTQSPSSLSASLGGKVTITCKASQDIHNYIAWYQHKPVKGPRLLIHYTSTLQPGTPSRFSGSGSGRDYSFSISNLEPEDIATYYCLQYDNLWTFGGGTKLEIKR | no binding | no binding |  |  |  |  | 
905-2-D7 TCR-like antibody (antibody, mouse IgG1, kappa, V domains shown, also called Tyr D7) VH: QVQLKESGPGLVAPSQSLSITCTVSGFSLTSYGVHWVRQPPGKGLEWLGVIWAGGTTNYNSALMSRLSISRDNSKSQVFLEMNSLQTDDTAIYYCARDGHFHFDFWGQGTTLTVSS VL: DIQMTQSPASLSVSVGETVTITCRASDIIYSNLAWYQQKQGKSPQLLVYAATNLAAGVPSRFSGSGSGTQYSLKINSLQSEDFGTYYCQHFWGSSISFGSGTKLEIKR | no binding | no binding |  |  |  |  | 
C106B9 TCR-like antibody (antibody, mouse IgG1, kappa, V domains shown, also called MAGE-A4 C106B9) VH: QVQLQQSGGEVMKPGASVKLSCKATGYTFTGYWIEWIKQRPGHGLEWIGEILPGSGGTNYNEKFKGKATFTAHTSSNTAYMQLSSLTTEDSAIYYCARDSNSFTYWGQGTLVTVSS VL: QIVLTQSPAIMSASPGEKVTITCSVSSSVDYIHWFQQKPGTSPKFWIYSTSILASGVPARFSGSGSGTSYSLTISRMEAEDAATYYCQQRSSYPPTFGSGTKLEIKR |  |  | 90 | 90 | 33 | 90 | 90

Reference: US20180179283A1 (ADICET BIO, published 2018)
